{"source": "patent US20230374116A1", "about": "(ROSALIND FRANKLIN INSTITUTE, published 2023)", "assay_in_all_cases": "cell-based or functional assay", "key": {"[1]": {"molecular_target": "Spike protein on live SARS-CoV-2 Alpha strain (SARS-CoV-2 Alpha (B.1.1.7), UniProt P0DTC2 14-1273)"}, "[2]": {"molecular_target": "Spike protein on live SARS-CoV-2 Beta strain (SARS-CoV-2 Beta (B.1.351), UniProt P0DTC2 14-1273)"}, "[3]": {"molecular_target": "Spike protein on live SARS-CoV-2 Delta strain (SARS-CoV-2 Delta (B.1.617.2), UniProt P0DTC2 14-1273)"}}, "data": [{"binder": "C1 trimer (VHH) QVQLVESGGGLVQPGGSLRLSCAASGFTNDFYSIAWFRQAPGKEREGVSWLSVSDNTPTYVDSVKDRFTISRHNANNTVYLQMNMLKPEDTAIYYCAAGRFAGRDTWPSSYDYWGQGTQVTVSSGSGSGSQVQLVESGGGLVQPGGSLRLSCAASGFTNDFYSIAWFRQAPGKEREGVSWLSVSDNTPTYVDSVKDRFTISRHNANNTVYLQMNMLKPEDTAIYYCAAGRFAGRDTWPSSYDYWGQGTQVTVSSGSGSGSQVQLVESGGGLVQPGGSLRLSCAASGFTNDFYSIAWFRQAPGKEREGVSWLSVSDNTPTYVDSVKDRFTISRHNANNTVYLQMNMLKPEDTAIYYCAAGRFAGRDTWPSSYDYWGQGTQVTVSS", "values": [{"measurement": "ND 50 MN assay, live virus", "setting": "[1]", "result": 8.2, "unit": "nM"}, {"measurement": "ND 50 MN assay, live virus", "setting": "[2]", "result": 4.5, "unit": "nM"}, {"measurement": "ND 50 MN assay, live virus", "setting": "[3]", "result": 3.1, "unit": "nM"}]}, {"binder": "H3 trimer (VHH) QVQLVESGGGLVKTGGSLRLSCAASGRTFSTYSMGWFRQAPGKEREFVAGMRWTGSSTFYSDSVKGRFTVSRNNAKDTVYLHMNSLKPEDTAVYYCAITTIVRAYYTEYTEADFGSWGQGTQVTVSSGAVLAPQVQLVESGGGLVKTGGSLRLSCAASGRTFSTYSMGWFRQAPGKEREFVAGMRWTGSSTFYSDSVKGRFTVSRNNAKDTVYLHMNSLKPEDTAVYYCAITTIVRAYYTEYTEADFGSWGQGTQVTVSSGSGSGSQVQLVESGGGLVKTGGSLRLSCAASGRTFSTYSMGWFRQAPGKEREFVAGMRWTGSSTFYSDSVKGRFTVSRNNAKDTVYLHMNSLKPEDTAVYYCAITTIVRAYYTEYTEADFGSWGQGTQVTVSS", "values": [{"measurement": "ND 50 MN assay, live virus", "setting": "[1]", "result": 0.6, "unit": "nM"}, {"measurement": "ND 50 MN assay, live virus", "setting": "[3]", "result": 0.3, "unit": "nM"}]}, {"binder": "A8 trimer (bispecific antibody) QVQLVESGGGLVQAGGSLRLSCAASGGTFSTAAMGWFRQAPGEERECVASIGWRGVRTWYADSVKGRFTISRDNPQNTVYLQMNNLKSGDTAVYYCAASVGNYGLPWAHFEYDFWGQGIQVTVSSGSGSGSQVQLVESGGGLVQAGGSLRLSCAASGGTFSTAAMGWFRQAPGEERECVASIGWRGVRTWYADSVKGRFTISRDNPQNTVYLQMNNLKSGDTAVYYCAASVGNYGLPWAHFEYDFWGQGIQVTVSSGSGSGSQVQLVESGGGLVQAGGSLRLSCAASGGTFSTAAMGWFRQAPGEERECVASIGWRGVRTWYADSVKGRFTISRDNPQNTVYLQMNNLKSGDTAVYYCAASVGNYGLPWAHFEYDFWGQGTQVTVSSKHHHHHH", "values": [{"measurement": "ND 50 MN assay, live virus", "setting": "[1]", "result": 0.1, "unit": "nM"}, {"measurement": "ND 50 MN assay, live virus", "setting": "[2]", "result": 0.2, "unit": "nM"}, {"measurement": "ND 50 MN assay, live virus", "setting": "[3]", "result": 0.1, "unit": "nM"}]}, {"binder": "C5 trimer (VHH, also called trimeric C5 nanobody; C5-6GS-C5-6GS-C5) QVQLVESGGGSVQAGGSLTLSCVASGVTLGRHAIGWFRQAPGKERERVSCIRTFDGITSYVESTKGRFTISSNNAMNTVYLQMNSLKPEDTAVYFCALGVTAACSDNPYFWGQGTQVTVSSGSGSGSQVQLVESGGGSVQAGGSLTLSCVASGVTLGRHAIGWFRQAPGKERERVSCIRTFDGITSYVESTKGRFTISSNNAMNTVYLQMNSLKPEDTAVYFCALGVTAACSDNPYFWGQGTQVTVSSGSGSGSQVQLVESGGGSVQAGGSLTLSCVASGVTLGRHAIGWFRQAPGKERERVSCIRTFDGITSYVESTKGRFTISSNNAMNTVYLQMNSLKPEDTAVYFCALGVTAACSDNPYFWGQGTQVTVSS", "values": [{"measurement": "ND 50 MN assay, live virus", "setting": "[1]", "result": 0.25, "unit": "nM"}, {"measurement": "ND 50 MN assay, live virus", "setting": "[3]", "result": 0.02, "unit": "nM"}]}]}
